Laboratory results taken from patent US20240066061A1.
Each block holds one molecule with its values, some of them ahead of it.

Target: chemokine receptor CXCR3 (human) (UniProt P49682)
Assay: cell-based or functional assay

UniProt P49682, sequence (P49682 whole entry): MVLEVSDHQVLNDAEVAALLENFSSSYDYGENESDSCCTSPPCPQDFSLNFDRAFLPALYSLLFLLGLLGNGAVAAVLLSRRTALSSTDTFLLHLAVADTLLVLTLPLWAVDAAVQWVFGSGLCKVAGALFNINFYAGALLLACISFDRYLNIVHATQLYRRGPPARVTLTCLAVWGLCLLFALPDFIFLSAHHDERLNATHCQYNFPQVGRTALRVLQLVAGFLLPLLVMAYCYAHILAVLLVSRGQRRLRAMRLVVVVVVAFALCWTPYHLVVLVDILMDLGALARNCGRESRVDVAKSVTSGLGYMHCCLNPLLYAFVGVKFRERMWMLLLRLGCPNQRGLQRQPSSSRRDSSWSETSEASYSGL

- chemokine concentration at maximum cell migration of CD8+ TSCM: 100 ng/mL
- chemotactic index, in-vitro transwell migration of human T cells: 2
Molecule: CXCL10 (from UniProt P02778 22-98) (ligand)

- chemokine concentration at maximum cell migration of CD8+ TSCM: 100 ng/mL
- chemotactic index, in-vitro transwell migration of human T cells: 2
- fold enrichment of CXCR3+ cells after 21 days stimulation with CMV epitopes and CXCL11: 10000 fold
B1: CXCL11 (ligand, UniProt O14625 22-94, looked up)
chain: FPMFKRGRCLCIGPGVKAVKVADIEKASIMYPSNNCDKIEVIITLKENKGQRCLNPKSKQARLIIKKVERKNF

- chemokine concentration at maximum cell migration of CD8+ TSCM: 100 ng/mL
- chemotactic index, in-vitro transwell migration of human T cells: 2
B2: CXCL9 (ligand, UniProt Q07325 23-125, looked up)
chain: TPVVRKGRCSCISTNQGTIHLQSLKDLKQFAPSPSCEKIEIIATLKNGVQTCLNPDSADVKELIKKWEKQVSQKKKQKNGKKHQKKKVLKVRKSQRSRQKKTT
